Results published in US20160362487A1 (Regeneron, published 2016).
Numbering of substitutions follows the chain as printed. Names and notes keep the numbering of the source.

T1: human IL-33 (R&D Systems, #3625-IL-010/CF) (human, UniProt O95760 112-270)
T1 construct: Commercial recombinant protein; also called hIL-33; interleukin-33
T1 sequence (looked up): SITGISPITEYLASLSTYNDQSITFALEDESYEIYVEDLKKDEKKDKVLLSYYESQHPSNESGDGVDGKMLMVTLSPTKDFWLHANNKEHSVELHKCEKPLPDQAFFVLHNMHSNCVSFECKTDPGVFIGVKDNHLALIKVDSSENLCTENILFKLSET

T2: cynomolgus monkey IL-33 expressed with a C-terminal hexahistidine tag (cynomolgus monkey)
T2 construct: also called MfIL-33-6His; Mf-IL-33-6His
T2 chain: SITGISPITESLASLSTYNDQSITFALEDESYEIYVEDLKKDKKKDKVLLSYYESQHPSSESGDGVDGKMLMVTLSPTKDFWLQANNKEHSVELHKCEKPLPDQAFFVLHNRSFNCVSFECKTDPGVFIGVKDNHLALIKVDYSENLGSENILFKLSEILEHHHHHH

T3: biotinylated hIL-33 protein (R&D systems, Cat #3625-IL/CF) (human, UniProt O95760 112-270, biotinylated (sites not given))
T3 construct: Same commercial protein as m21, biotin-labelled; also called biotin-hIL-33
T3 sequence (looked up): T1 sequence (looked up)

B1: H4H9672P (antibody, human IgG4, V domains shown)
VH: EVQLVESGGGLVQPGGSLRLSCAASGFTLRSYVMYWVRQGPGKGLEGVSGISGSSGGTYYTDSVKGRFTISRDNSKNTLFLQMNSLRAEDTAVYFCARSVYSTTWYGGFQHWGQGTLVTVSS
VL: DIQMTQSPSSVSVSVGDRVTITCRASQVISSWLAWYQLKPGKAPKLLIYAASSLQSGVPSRFSGSGSGTDFTLTISGLQPEDFAVYYCQQTNSFPLTFGGGTKVEIK
notes: Human IgG4 Fc (H4H)
B2: H4H9670P (antibody, V domains shown)
VH: EVQLVESGGGLVQPGGSLRLSCAASGFTLSSYAMSWVRQAPGKGLEWVSAISGSGGSTYYADSVKGRFTISRDNSKNSLYLQLNSLRAEDTAVYYCAKTLYTTSWYGGFQHWGQGTLVTVSS
VL: DIQMTQSPSSVSASIGDRVTITCRASQGISSWLAWYQQKPGKVPKLLIYAASSLQSGFPSRFSGSGSGTDFTLTISSLQPEDFATYYCQQTHSFPWTVGQGTKVEIK
notes: Human IgG4 Fc (H4H)
B3: H4H9667P (antibody, human IgG4, V domains shown)
VH: EVQLVESGGGLVQPGGSLRLSCAASGFTFSTYSMHWVRQAPGKGLEYVSTINNNGDTTYYADSVKGRFTISRDNSKNTLYLQLGSLRPEDMAVYYCARQTYTSSWYGGFDSWGQGTLVTVSS
VL: DIQMTQSPSSVSASVGDRVTITCRASQGITSWLAWYQQKPGKAPKLLIYAASNLQSGVPSRFSGSGSGTDFTLTITSLQPEDFATYYCQQANSLPFTFGPGTKVDIK
notes: Human IgG4 Fc (H4H)
B4: H4H9671P (antibody, human IgG4, V domains shown)
VH: B1 VH with V33F, Y35T, G40V, G50A, S54I, S99T, T103S, T104S, W105Y
VL: B1 VL with V28G, L38Q, A50V, G77S, V85T
notes: Human IgG4 Fc (H4H)
B5: H4H9675P (antibody, human IgG4, V domains shown)
VH: EVQLVESGGNLEQPGGSLRLSCTASGFTFSRSAMNWVRRAPGKGLEWVSGISGSGGRTYYADSVKGRFTISRDNSKNTLYLQMNSLSAEDTAAYYCAKDSYTTSWYGGMDVWGHGTTVTVSS
VL: B3 VL with T30F, N53S, T76S, T85I, L94V, F96I, P100Q, K103R, V104L, D105E
notes: Human IgG4 Fc (H4H)

target: T1, human IL-33 (R&D Systems, …); assay: SPR 25C pH7.4, mAb captured
Summary of the method: (§1)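 KD and t½ were derived from kinetic rates (1:1 model) measured by SPR at 25 °C or 37 °C, with human IL-33 or His-tagged cynomolgus IL-33 flowed over mAbs captured by anti-species Fc antibodies. Standard runs in ADA/NaCl/EDTA/Tween buffer at pH 7.4 used 4 min binding and 10 min washout. The low-pH variant switched to pH 6.0 buffer for 3 min after a 30 s neutral dissociation.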

Binder	Kd [nM]	koff [s⁻¹]	kon [M⁻¹ s⁻¹]	t½ [min]
B1	0.527	0.000352	668000	33
B2	0.368	0.000289	786000	40
B3	0.395	0.000252	637000	46
B4	0.453	0.000349	771000	33
B5	0.254	0.000258	1.02e+06	45

Target: T2, cynomolgus monkey IL-33 expressed with …
Assay: SPR 25C pH7.4, mAb captured
Summary of the method: as §1

Binder	Kd [nM]	koff [s⁻¹]	kon [M⁻¹ s⁻¹]	t½ [min]
B1	8.22	0.0036	437000	3.2
B2	4.77	0.0021	440000	6
B3	2.89	0.000991	343000	12
B4	2.55	0.0015	587000	8
B5	2.55	0.00129	506000	9

target: T1, human IL-33 (R&D Systems, …); assay: SPR 37C pH7.4, mAb captured
Summary of the method: as §1

Binder	Kd [nM]	koff [s⁻¹]	kon [M⁻¹ s⁻¹]	t½ [min]
B1	1.05	0.00115	1.09e+06	10
B2	0.676	0.000783	1.16e+06	15
B3	0.618	0.000603	976000	19
B4	0.938	0.00114	1.21e+06	10
B5	0.411	0.000872	2.12e+06	13

Target: T2, cynomolgus monkey IL-33 expressed with …
Assay: SPR 37C pH7.4, mAb captured
Summary of the method: as §1

Binder	Kd [nM]	koff [s⁻¹]	kon [M⁻¹ s⁻¹]	t½ [min]
B1	13.7	0.013	946000	0.9
B2	6.84	0.00503	735000	2.3
B3	4.66	0.00317	681000	4
B4	5.08	0.00607	1.2e+06	1.9
B5	4.81	0.00491	1.02e+06	2.4

target: T1, human IL-33 (R&D Systems, …); assay: SPR 25C, pH6.0 chase, mAb captured
Summary of the method: as §1

Binder	koff [s⁻¹]	t½ [min]	t½ Ratio (pH 7.4/pH 6.0)
B1	0.00141	8	4
B2	0.000825	14	2.9
B3	0.000566	20	2.2
B4	0.00162	7	4.6
B5	0.00111	10	4.3

Target: T2, cynomolgus monkey IL-33 expressed with …
Assay: SPR 25C, pH6.0 chase, mAb captured
Summary of the method: as §1

Binder	koff [s⁻¹]	t½ [min]	t½ Ratio (pH 7.4/pH 6.0)
B1	0.00267	4	0.7
B2	0.000393	29	0.2
B3	0.000696	17	0.7
B4	0.00161	7	1.1
B5	0.00156	7	1.2

Target: T2, cynomolgus monkey IL-33 expressed with …
Assay: competition ELISA, 150 pM MfIL-33-6His on coated hST2-hFc
Summary of the method: (§2)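 Readout was TMB absorbance at 450 nm after HRP detection (streptavidin for biotin-hIL-33, anti-His for MfIL-33-6His) on human ST2-hFc-coated wells. Antibodies preincubated 1 h at RT with fixed IL-33 (30 pM human, 150 pM cynomolgus) before 1 h plate binding; blockade scaled between IL-33-only and no-IL-33 signals.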

Binder	% Maximum blocking [%]	IC50 [nM]
B1	48	5.5
B2	69	3.5
B3	72	4.1
B4	62	0.58
B5	72	1.5

target: T3, biotinylated hIL-33 protein (R&D …); assay: competition ELISA, 30 pM biotin-hIL-33 on coated hST2-hFc
Summary of the method: as §2

Binder	% Maximum blocking [%]	IC50 [nM]
B1	63	0.44
B2	69	0.48
B3	78	0.41
B4	46	0.46
B5	58	0.44
